Measurements published in patent US20190211081A1 (Chugai, published 2019).

What was measured:
[1] = molecular target: T1, soluble human FcRn (complex of FcRn and beta2-microglobulin) (human, UniProt P55899 24-290; P61769 21-119); test: Biacore 3000, antibody captured on Protein L or rabbit anti-human kappa antibody, human FcRn as analyte, pH 6.0, steady state affinity
T1 construct: Expressed constructs contain the signal regions (FcRn Met1-Leu290; beta2-microglobulin Met1-Met119); Secreted from HEK293H cells and purified; also called hFcRn
Protocol: (§1) The binding to human FcRn was assessed using Biacore 3000. An antibody was bound to Protein L or rabbit anti-human IgG Kappa chain antibody immobilized onto a sensor chip, human FcRn was added as an analyte for interaction with the antibody, and the affinity (KD) was calculated from the amount of bound human FcRn. Specifically, Protein L or rabbit anti-human IgG Kappa chain antibody was immobilized onto sensor chip CM5 (BIACORE) by the amine coupling method using 50 mM Na-phosphate buffer (pH 6.0) containing 150 mM NaCl as the running buffer. […] Human FcRn was then injected and the binding of the human FcRn to antibody was assessed.
(§2) The obtained sensorgram was used to calculate the amount of hFcRn bound to the antibody immediately before the end of human FcRn injection. The affinity of the antibody for human FcRn was calculated by fitting with the steady state affinity method.

[2] = molecular target: T1, soluble human FcRn (complex of FcRn and …); test: Biacore 3000, antibody captured, human FcRn as analyte, pH 6.0, steady state affinity
Protocol: as §1
The affinity was computed using BIAevaluation Software. The obtained sensorgram was used to calculate the amount of hFcRn bound to the antibody immediately before the end of human FcRn injection. The affinity of the antibody for human FcRn was calculated by fitting with the steady state affinity method.
The resulting antibodies were assessed for their human FcRn-binding activity by the method described above.

[3] = molecular target: T1, soluble human FcRn (complex of FcRn and …); test: Biacore 3000, antibody captured, human FcRn as analyte, pH 6.0
Protocol: as §1, §2

[4] = molecular target: T1, soluble human FcRn (complex of FcRn and …); test: Biacore T100, human FcRn immobilized on CM4 chip, antibody as analyte (divalent avidity), pH 6.0, 25 C, KD from ka and kd
Protocol: Then, the present inventors assessed in this Example the binding of IgG to FcRn with divalent avidity by immobilizing human FcRn onto a sensor chip and injecting IgG as an analyte to more closely mimic the in vivo case.
First, about 2,000 RU of human FcRn was immobilized onto sensor chip CM4 (GE Healthcare) by the amino coupling method. Reagents used in the amino coupling were: ethanol amine (GE Healthcare), 50 mM NaOH solution (GE Healthcare), NHS (GE Healthcare), EDC (GE Healthcare). HBS-EP+ solution (10×HBS-EP+ solution (GE Healthcare) was used after dilution) was used as the mobile phase. Then, antibodies were each injected as an analyte into the sensor chip immobilized with human FcRn for three minutes to observe the binding of FcRn to the antibodies. After this observation, the mobile phase was injected for five minutes to assess the dissociation of each antibody variants from FcRn. All measurements were carried out at 25° C. The mobile phase used was 10 mM Cit (pH 6.0)/150 mM NaCl/0.05% Tween20.
From the obtained sensorgrams, the association rate constant ka (1/Ms) and dissociation rate constant kd (1/s) were calculated for the three minutes of binding phase using Biacore T100 Evaluation Software (GE Healthcare). The dissociation constant KD (M) was determined based on these values.

Binder	Kd [1]	Kd [2]	fold increase of binding compared to IL6R H0-IgG1/L0-k0 [3]	Kd [4]
IL6R H0-M58/L0-k0 (antibody, IgG2, L-chain constant region k0; also called M58-k0 (anti-IL-6 receptor antibody)) heavy: QVQLQESGPGLVRPSQTLSLTCTVSGYSITSDHAWSWVRQPPGRGLEWIGYISYSGITTYNPSLKSRVTMLRDTSKNQFSLRLSSVTAADTAVYYCARSLARTTAMDYWGQGSLVTVSSASTKGPSVFPLAPSSKSTSGGTAALGCLVKDYFPEPVTVSWNSGALTSGVHTFPAVLQSSGLYSLSSVVTVPSSNFGTQTYTCNVDHKPSNTKVDKTVERKSCVECPPCPAPPVAGPSVFLFPPKPKDTLMISRTPEVTCVVVDVSQEDPEVQFNWYVDGVEVHNAKTKPREEQFNSTFRVVSVLTVVHQDWLNGKEYKCKVSNKGLPAPIEKTISKTKGQPREPQVYTLPPSQEEMTKNQVSLTCLVKGFYPSDIAVEWESNGQPENNYKTTPPMLDSDGSFFLYSKLTVDKSRWQEGNVFSCSVMHEALHNHYTQKSLSLSP light: not shown	1030 nM	1030 nM	~1.4 times	3.85 nM
IL31R H0-IgG1/L0-k0 (antibody, also called anti-IL-31 receptor antibody, IgG1-k0) heavy: not shown light: DIQMTQSPSSLSASVGDRVTITCRTSENIYSFLAWYQQKPGKAPKLLIYNAKTLAKGVPSRFSGSGSGTDFTLTISSLQPEDFATYYCQHHYESPLTFGGGTKVEIKRTVAAPSVFIFPPSDEQLKSGTASVVCLLNNFYPREAKVQWKVDNALQSGNSQESVTEQDSKDSTYSLSSTLTLSKADYEKHKVYACEVTHQGLSSPVTKSFNRGEC		1070 nM		
IL31R H0-M58/L0-k0 (antibody, also called anti-IL-31 receptor antibody, M58-k0) heavy: QVQLVQSGAEVKKPGASVKVSCKASGYTFTGYIMNWVRQAPGQGLEWMGLINPYNGGTSYNQKFKGRVTITADESTSTAYMELSSLRSEDTAVYYCARDGYDDGPYTMDYWGQGTLVTVSSASTKGPSVFPLAPSSKSTSGGTAALGCLVKDYFPEPVTVSWNSGALTSGVHTFPAVLQSSGLYSLSSVVTVPSSNFGTQTYTCNVDHKPSNTKVDKTVERKSCVECPPCPAPPVAGPSVFLFPPKPKDTLMISRTPEVTCVVVDVSQEDPEVQFNWYVDGVEVHNAKTKPREEQFNSTFRVVSVLTVVHQDWLNGKEYKCKVSNKGLPAPIEKTISKTKGQPREPQVYTLPPSQEEMTKNQVSLTCLVKGFYPSDIAVEWESNGQPENNYKTTPPMLDSDGSFFLYSKLTVDKSRWQEGNVFSCSVMHEALHNHYTQKSLSLSP light: DIQMTQSPSSLSASVGDRVTITCRTSENIYSFLAWYQQKPGKAPKLLIYNAKTLAKGVPSRFSGSGSGTDFTLTISSLQPEDFATYYCQHHYESPLTFGGGTKVEIKRTVAAPSVFIFPPSDEQLKSGTASVVCLLNNFYPREAKVQWKVDNALQSGNSQESVTEQDSKDSTYSLSSTLTLSKADYEKHKVYACEVTHQGLSSPVTKSFNRGEC		910 nM		

Results, then the binder that gave them:

Kd [1]	Kd [2]	fold increase of binding compared to IL6R H0-IgG1/L0-k0 [3]	Kd [4]	Binder
			3.26 nM	IL6R H0-M66/L0-k3 (antibody, also called M66-k3) heavy: QVQLQESGPGLVRPSQTLSLTCTVSGYSITSDHAWSWVRQPPGRGLEWIGYISYSGITTYNPSLKSRVTMLRDTSKNQFSLRLSSVTAADTAVYYCARSLARTTAMDYWGQGSLVTVSSASTKGPSVFPLAPSSKSTSGGTAALGCLVKDYFPEPVTVSWNSGALTSGVHTFPAVLQSSGLYSLSSVVTVPSSNFGTQTYTCNVDHKPSNTKVDKTVERKCSVECPPCPAPPVAGPSVFLFPPKPKDTLMISRTPEVTCVVVDVSQEDPEVQFNWYVDGVEVHNAKTKPREEQFNSTFRVVSVLTVVHQDWLNGKEYKCKVSNKGLPAPIEKTISKTKGQPREPQVYTLPPSQEEMTKNQVSLTCLVKGFYPSDIAVEWESNGQPENNYKTTPPMLDSDGSFFLYSKLTVDKSRWQEGNVFSCSVMHEALHNHYTQKSLSLSP light: not shown
			3.54 nM	IL6R H0-M66/L0-k0 (antibody, L-chain constant region k0; also called M66-k0) heavy: QVQLQESGPGLVRPSQTLSLTCTVSGYSITSDHAWSWVRQPPGRGLEWIGYISYSGITTYNPSLKSRVTMLRDTSKNQFSLRLSSVTAADTAVYYCARSLARTTAMDYWGQGSLVTVSSASTKGPSVFPLAPSSKSTSGGTAALGCLVKDYFPEPVTVSWNSGALTSGVHTFPAVLQSSGLYSLSSVVTVPSSNFGTQTYTCNVDHKPSNTKVDKTVERKCSVECPPCPAPPVAGPSVFLFPPKPKDTLMISRTPEVTCVVVDVSQEDPEVQFNWYVDGVEVHNAKTKPREEQFNSTFRVVSVLTVVHQDWLNGKEYKCKVSNKGLPAPIEKTISKTKGQPREPQVYTLPPSQEEMTKNQVSLTCLVKGFYPSDIAVEWESNGQPENNYKTTPPMLDSDGSFFLYSKLTVDKSRWQEGNVFSCSVMHEALHNHYTQKSLSLSP light: not shown
